According to patent US12410253B2, “Compositions comprising anti-NRP2 antibodies” (aTyr Pharma, Inc., priority 2019, dated 2025):
“Also recorded” adds a separate entry of the source.

T1: Human NRP2 (aa23-855) (Homo sapiens, UniProt O60462)
T1 construct: Human NRP2 (aa23-855)
T1 sequence (O60462 23-855 isoform O60462-3): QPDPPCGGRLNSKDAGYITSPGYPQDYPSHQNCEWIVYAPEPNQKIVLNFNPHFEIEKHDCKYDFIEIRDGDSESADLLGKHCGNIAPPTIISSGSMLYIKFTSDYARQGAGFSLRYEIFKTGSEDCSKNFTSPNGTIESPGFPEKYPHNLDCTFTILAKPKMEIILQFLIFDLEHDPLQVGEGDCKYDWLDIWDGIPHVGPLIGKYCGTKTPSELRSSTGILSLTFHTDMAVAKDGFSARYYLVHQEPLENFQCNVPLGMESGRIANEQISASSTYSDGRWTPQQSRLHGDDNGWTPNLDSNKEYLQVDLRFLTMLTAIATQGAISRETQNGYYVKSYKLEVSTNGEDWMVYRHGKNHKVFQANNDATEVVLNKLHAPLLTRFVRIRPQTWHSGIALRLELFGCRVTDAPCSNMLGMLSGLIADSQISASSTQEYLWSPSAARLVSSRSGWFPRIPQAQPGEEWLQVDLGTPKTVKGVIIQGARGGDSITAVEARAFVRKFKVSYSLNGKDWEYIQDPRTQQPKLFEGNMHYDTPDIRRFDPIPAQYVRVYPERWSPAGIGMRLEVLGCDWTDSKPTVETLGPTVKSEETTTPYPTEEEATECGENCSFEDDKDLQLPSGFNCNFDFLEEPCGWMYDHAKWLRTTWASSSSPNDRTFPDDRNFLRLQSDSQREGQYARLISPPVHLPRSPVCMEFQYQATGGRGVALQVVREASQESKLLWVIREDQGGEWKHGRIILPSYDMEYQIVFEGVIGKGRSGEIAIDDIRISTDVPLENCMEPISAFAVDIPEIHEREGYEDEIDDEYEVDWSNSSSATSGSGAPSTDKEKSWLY

B1: aNRP2-14v10: humanized, affinity matured anti-NRP2 antibody, target domain a2, semaphorin blocking; VH SEQ ID NO: 55, VL SEQ ID NO: 56 (antibody, V domains shown)
VH: QLQLVESGGGVVQPGRSLRLSCTVSGFSLTSYGVHWVRQAPGKGLEWVGLIWSGGSTDYSPAFISRFTISEDNSKSTVYLQMNSLRAEDTAVYFCARNSYSSGYYAMDYWGQGTTVTVSS
VL: DIQLTQSPSFLSASVGDRVTITCKASQNVGTAVAWYQQKPGKAPKLLIYSASNRYTGVPSRFSGSGSGTEFTLTISSLQPEDFATYYCQQRSRYPPYTFGGGTKVEIK
modifications: Variable heavy chain region; Light chain variable region
B2: Sema3F: Semaphorin 3F, NRP2 ligand used to reduce phospho-Akt levels (protein)
chain: SFPTQDHLPATPRVRLSFKELKATGTAHFFNFLLNTTDYRILLKDEDHDRMYVGSKDYVLSLDLHDINREPLIIHWAASPQRIEECVLSGKDVNGECGNFVRLIQPWNRTHLYVCGTGAYNPMCTYVNRGRRAQATPWTQTQAVRGRGSRATDGALRPMPTAPRQDYIFYLEPERLESGKGKCPYDPKLDTASALINEELYAGVYIDFMGTDAAIFRTLGKQTAMRTDQYNSRWLNDPSFIHAELIPDSAERNDDKLYFFFRERSAEAPQSPAVYARIGRICLNDDGGHCCLVNKWSTFLKARLVCSVPGEDGIETHFDELQDVFVQQTQDVRNPVIYAVFTSSGSVFRGSAVCVYSMADIRMVFNGPFAHKEGPNYQWMPFSGKMPYPRPGTCPGGTFTPSMKSTKDYPDEVINFMRSHPLMYQAVYPLQRRPLVVRTGAPYRLTTIAVDQVDAADGRYEVLFLGTDRGTVQKVIVLPKDDQELEELMLEEVEVFKDPAPVKTMTISSKRQQLYVASAVGVTHLSLHRCQAYGAACADCCLARDPYCAWDGQACSRYTASSKRASRAQDVRHGNPIRQCRGFNSNANKNAVESVQYGVAGSAAFLECQPRSPQATVKWLFQRDPGDRRREIRAEDRFLRTEQGLLLRALQLSDRGLYSCTATENNFKHVVTRVQLHVLGRDAVHAALFPPLSMSAPPPPGAGPPTPPYQELAQLLAQPEVGLIHQYCQGYWRHVPPSPREAPGAPRSPEPQDQKKPRNRR
B3: aNRP2-10v13: humanized, affinity matured anti-NRP2 antibody, target domain b1; VH SEQ ID NO: 69, VL SEQ ID NO: 70 (antibody, V domains shown)
VH: EVQLVQSGAEVKKPGATVKISCKVSGFNIKDYYVHWVQQAPGKGLEWMGRIDVHDDETKYAPKFQGRVTITADTSTDTAYMELSSLRSEDTAVYYCATPIYGAREAWFAYWGQGTLVTVSS
VL: DIQMTQSPSSLSASVGDRVTITCTASSSVSSSYLHWYQQKPGKAPKLLIYRTSNLASGVPSRFSGSGSGTDFTLTISSLQPEDFATYYCHQYYRSPPTFGGGTKVEIK
modifications: Variable heavy chain region; Light chain variable region
B4: aNRP2-1v3: humanized, affinity matured anti-NRP2 antibody, target domain b2; VH SEQ ID NO: 43, VL SEQ ID NO: 44 (antibody, V domains shown)
VH: QVQLVQSGAEVKKPGASVKVSCKASGYTFTSYWMHWVRQAPGQGLEWMGAIYPGNSDTSYNQQFKGRVTMTRDTSTSTVYMELSSLRSEDTAVYYCARRGGGYFDYWGQGTLVTVSS
VL: DIQLTQSPSFLSASVGDRVTITCKASQNVGAAVAWYQQKPGKAPKLLIYSASNRYTGVPSRFSGSGSGTEFTLTISSLQPEDFATYYCQQYSSYPLLTFGGGTKVEIK
modifications: Variable heavy chain region; Light chain variable region
B5: aNRP2-2v4: humanized, affinity matured anti-NRP2 antibody, target domain c; VH SEQ ID NO: 45, VL SEQ ID NO: 46 (antibody, V domains shown)
VH: QVQLVQSGAEVKKPGASVKVSCKASGYTFTSYWMHWVRQAPGQGLEWMGVIHPNSASTFYNERFKTRATMTVDRSSSTAYMELSSLRSEDTAVYYCSRPGTVRRSDYWGQGTTVTVSS
VL: DVVMTQSPLSLPVTLGQPASISCRSSQNIVHSTGNTYLEWYQQRPGQSPRLLIYKVSNRFSGVPDRFSGSGSGTDFTLKISRVEAEDVGVYYCFQGSHVPWTFGGGTKVEIK
modifications: Variable heavy chain region; Light chain variable region
B6: aNRP2-10v5: humanized, affinity matured anti-NRP2 antibody, target domain b1; VH SEQ ID NO: 47, VL SEQ ID NO: 48 (antibody, V domains shown)
VH: EVQLVQSGAEVKKPGATVKISCKVSGFNIKDYYIHWVQQAPGKGLEWMGRIDVEDDETKYAPKFQGRVTITADTSTDTAYMELSSLRSEDTAVYYCATPIYGSREAWFAYWGQGTLVTVSS
VL: DIQMTQSPSSLSASVGDRVTITCTASSSVSSSYLHWYQQKPGKAPKLLIYRTSNLASGVPSRFSGSGSGTDFTLTISSLQPEDFATYYCHQYYRSPPTFGGGTKVEIK
modifications: Variable heavy chain region; Light chain variable region

What was measured:
[1] = tested on: phospho-Akt levels in U251 glioblastoma cells; assay: Semaphorin 3F mediated inhibition of AKT phosphorylation in U251 cells; assay type: cell-based
Protocol: As shown schematically in FIG. 17, the treatment of cells with Sema3F should specifically block PI3K activity via NRP2 mediated interaction with plexin A1, thereby resulting in reduced phospho-Akt levels. To directly test the ability of the anti-NRP2 antibodies to block this effect, lysates were prepared following standard protocols (MesoScale Discovery, Phospho (Ser473)/Total Akt Assay Whole Cell Lysate Kit #K15100D). Serum starved and confluent U251 cells (Sigma, Cat. 09063001) were treated with 10 nM rapamycin (Sigma, Cat. 553211, 30 minutes), and blocking antibodies or controls were added (10 μg/mL, 30 minutes), followed by 25 nM Sema3F or serum free media for 1 hour in triplicate. Lysate protein concentrations were determined by BCA assay and samples were equalized to 0.4 mg/mL. Phospho and Total AKT were measured following the manufacturer's instructions and percent phosphorylation was calculated by dividing phosphorylated AKT relative units by total AKT relative units. Blocking of Sema3F for each antibody or control was determined by comparing percent phosphorylation of Sema3F treated cells to percent phosphorylation of non-Sema3F treated cells.

Human NRP2 (aa23-855) = biological target: T1, Human NRP2 (aa23-855); assay: SPR binding affinity of anti-NRP2 antibodies to human NRP2 antigen; settings: KD = kd/ka, Langmuir (1:1) model
Protocol: Anti-NRP2 antibody binding and affinity measurements. […] SPR experiments were conducted on a Bio-Rad ProteOn XPR36 Protein Interaction Array instrument. Biotinylated anti-human antibody (ThermoFisher Cat #7103302100) was immobilized on ProteOn NLC sensor chips. Anti-NRP2 antibodies were subsequently flowed over and captured by the anti-human antibody. Human NRP2 antigen protein was flowed over the captured antibody at varying concentrations (150, 50, 16.67, 5.56, 1.85 nM). The sensor chip surface was regenerated between each analyte run to remove anti-NRP2 antibodies and NRP2 protein. Data was double referenced against a surface with no anti-NRP2 antibody captured (immobilized anti-human antibody only) and a buffer only blank. Affinity constants were derived by globally fitting sensograms to a Langmuir (1:1) interaction model in the ProteOn manager software. For each anti-NRP2 antibody, data from the multiple NRP2 concentrations was fit as a single data set with dissociation rate constant (kd), association rate constant (ka) and Rmax values as global parameters. The reported binding affinity is the equilibrium dissociation constant (KD) calculated from kd/ka. • Running buffer: 50 mM HEPES, 300 mM NaCl, 5 mM CaCl2), 0.005% Tween-20, pH 7.4 • Immobilized antibody: CaptureSelect Human Fab-kappa Kinetics Biotin Conjugate, ThermoFisher Cat #7103302100 • Antigen: Human NRP2 (aa23-855) with C-terminal Avi-, Myc- and His-tags • Regeneration buffer: 10 mM glycine pH 2.0

| Molecule | blocking of the Sema3F induced decrease in intracellular phospho-Akt levels ([1]; antibody 10 μg/mL, 25 nM Sema3F 1 hour) | Kd (Human NRP2 (aa23-855)) [nM] | decrease in intracellular phospho-Akt levels ([1]; 25 nM Sema3F, 1 hour) |
| --- | --- | --- | --- |
| B1 | blocked the reduction in phospho-Akt levels; also recorded: block semaphorin 3F mediated inhibition of AKT phosphorylation; also recorded: can be blocked | 0.17 |  |
| B2 |  |  | approximately 50% |
| B3 |  | 0.358 |  |
| B4 |  | 17 |  |
| B5 |  | 2.7 |  |
| B6 |  | 0.2 |  |
